Results taken from PMC12711160 (Chemmedchem, 2025).
“Also recorded” adds a separate entry of the source. One block for each molecule: values may come before it.

Columns and labels:
[1] = DMEM/Ham‘s with 15% FBS, pH = 8.01
[2] = DMEM/Ham‘s w/o FBS, pH = 7.04
[3] = luciferase reporter gene assay medium (DMEM/Ham‘s w/o phenolred, w/o FBS, pH = 7.41)
[4] = molecular target: human neuropeptide Y receptor type 4 (hY4R), in stably transfected COS-7 cells (human) (UniProt P50391)
[5] = molecular target: human neuropeptide Y (NPY) receptor type 1 (hY1R), in stably transfected COS-7 cells (human) (UniProt P25929)
human neuropeptide Y (NPY) receptor type 1 (hY1R), in stably transfected COS-7 cells (human), sequence (P25929 whole entry): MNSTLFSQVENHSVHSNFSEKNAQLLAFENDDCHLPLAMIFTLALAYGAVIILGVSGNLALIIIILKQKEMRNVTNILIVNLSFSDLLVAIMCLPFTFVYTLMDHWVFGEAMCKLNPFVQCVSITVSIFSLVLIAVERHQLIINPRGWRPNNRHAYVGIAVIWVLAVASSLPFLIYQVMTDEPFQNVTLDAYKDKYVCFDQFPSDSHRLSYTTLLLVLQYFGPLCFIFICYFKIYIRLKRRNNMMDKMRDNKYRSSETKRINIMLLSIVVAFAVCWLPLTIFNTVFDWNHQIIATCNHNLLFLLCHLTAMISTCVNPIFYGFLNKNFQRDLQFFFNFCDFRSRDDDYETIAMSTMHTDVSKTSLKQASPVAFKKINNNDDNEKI

[6] = molecular target: human neuropeptide Y receptor type 4 (hY4R), in stably transfected COS-7 cells (human) (UniProt P50391); remark: listed apart in the source
[7] = molecular target: human neuropeptide Y (NPY) receptor type 1 (hY1R), in stably transfected COS-7 cells (human) (UniProt P25929); remark: listed apart in the source
ERα [8] = experiment: Luciferase reporter gene assay, control HEK293 cells expressing only ERα-pEGFP and TATA-luciferase (w/o hY1R); conditions: read-out: EC50 luciferase reporter gene assay, w/o hY1R; HEK293 cells expressing ERα and ERE-luciferase but not hY1R; stimulation 24 h; normalized to 4-OHT; n. d. = could not be determined
Description: Values were normalized to the native ligands (NPY for hY1R and hY2R, hPP for hY4R). Data points represent mean ± SEM from n ≥ 2 independent experiments with technical triplicates. Luciferase reporter gene assay in transiently transfected HEK293‐cells expressing hY1R‐eYFP. […] Data points represent mean ± SEM from n ≥ 3 independent experiments with technical triplicates. Calculated pEC50‐ and Emax‐values are shown as bar graphs.
HEK293‐cells were transiently transfected with 0.083 µg/well hY1R‐eYFP‐pVitro2, pEGFP‐c1‐ERα (kindly provided by Michael Mancini (Addgene plasmid #28230; http://n2t.net/addgene:28230; RRID:Addgene_28230))^[ [58] ^] and 3xERE‐Tata‐Luc (kindly provided by Donald McDonnell (Addgene plasmid #11354; http://n2t.net/addgene:11354; RRID:Addgene_11354))^[ [59] ^] parallel to cell seeding. For a control experiment without hY1R‐expression, pEGFP‐N1 together with pEGFP‐c1‐ERα and 3xERETata‐Luc was transfected instead. Lipofectamine2000 (Invitrogen) was used as a transfection reagent according to the manufacturer's protocol. […] Luciferase activity was detected with ONE Glo Luciferase Assay System (Promega) following the manufacturer's specifications. Each concentration was measured at least in technical triplicates and relative luminescence units (RLU) were obtained by normalization to free 4‐OH‐Tmx. Concentration response curves were calculated with Graph Pad Prism 9.

ERα [9] = experiment: Luciferase reporter gene assay, HEK293 cells expressing hY1R-eYFP, ERα-pEGFP and 3xERE-TATA-luciferase; format: cell-based; conditions: ERα and ERE-luciferase, stimulation 24 h, normalized to 4-OHT, at least three independent experiments, n. d. = could not be determined
Description: B) ERα‐pEGFP and TATA‐luciferase.
Therefore, we tested HEK293 cells that transiently express hY1R, ERα, and an ERα activity‐dependent luciferase. ERα forms dimers and translocates into the nucleus upon activation, where it binds to the estrogen response element (ERE) upstream of the luciferase gene and induces luciferase expression.

[10] = human blood plasma/DPBS (Biowest; 1:1, v/v); conditions: 37 °C, up to 72 h
[11] = molecular target: human neuropeptide Y receptor type 5 (hY5R), in stably transfected COS-7 cells (human) (UniProt Q15761)
human neuropeptide Y receptor type 5 (hY5R), in stably transfected COS-7 cells (human), sequence (Q15761 whole entry): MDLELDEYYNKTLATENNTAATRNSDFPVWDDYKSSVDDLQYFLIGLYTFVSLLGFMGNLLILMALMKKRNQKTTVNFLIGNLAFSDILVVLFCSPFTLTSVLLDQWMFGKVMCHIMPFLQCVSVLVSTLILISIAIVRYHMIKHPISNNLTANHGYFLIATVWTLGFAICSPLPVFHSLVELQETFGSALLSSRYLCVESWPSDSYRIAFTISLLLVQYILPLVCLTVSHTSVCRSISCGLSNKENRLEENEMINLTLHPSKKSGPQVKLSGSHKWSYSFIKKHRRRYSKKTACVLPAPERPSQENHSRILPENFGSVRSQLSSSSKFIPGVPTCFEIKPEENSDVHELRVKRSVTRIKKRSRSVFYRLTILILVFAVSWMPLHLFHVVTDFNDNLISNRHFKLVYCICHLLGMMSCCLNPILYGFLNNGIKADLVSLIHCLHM

[12] = molecular target: human neuropeptide Y receptor type 5 (hY5R), in stably transfected COS-7 cells (human) (UniProt Q15761); remark: listed apart in the source
hY4R‐eYFP (human) = hY4R‐eYFP (human) (UniProt P50391)
hY4R‐eYFP (human), sequence (P50391 whole entry): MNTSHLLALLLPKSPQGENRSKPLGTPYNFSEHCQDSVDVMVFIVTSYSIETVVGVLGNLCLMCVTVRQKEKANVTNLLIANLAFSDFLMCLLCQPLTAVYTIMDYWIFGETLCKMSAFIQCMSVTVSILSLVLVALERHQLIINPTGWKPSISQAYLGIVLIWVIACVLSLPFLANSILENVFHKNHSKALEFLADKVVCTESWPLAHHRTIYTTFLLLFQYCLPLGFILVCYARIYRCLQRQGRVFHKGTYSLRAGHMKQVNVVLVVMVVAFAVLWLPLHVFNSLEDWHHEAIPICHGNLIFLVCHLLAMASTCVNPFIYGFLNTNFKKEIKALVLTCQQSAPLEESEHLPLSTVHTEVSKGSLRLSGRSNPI

human neuropeptide Y receptor type 4 (hY4R), in stably transfected COS-7 cells (human), sequence (P50391 whole entry): as above

Molecule: [K4(Diamine-4-OHT),F7,P34]-pNPY
fragment found (DPBS, pH = 7.4): peptide without 4-OHT
fragment found [1]: peptide without 4-OHT
fragment found [2]: peptide without 4-OHT
fragment found [3]: peptide without 4-OHT

Molecule: CC/C(=C(\c1ccc(O)cc1)c1ccc(OCCN(C)C)cc1)c1ccccc1 [4‐OHT, 4‐hydroxytamoxifen]
EC50 (ERα [8]): 5.8 nM
EC50 (ERα [9]): 9.4 nM

Molecule: YPSK(GFL-G(13C2,15N)- COCH2-4-OHT)PDFPGEDAPA(13C3,15N)EDLARYYSALRHYINL(13C6,15N)ITRPRY-NH2
cleaved bond [10]: Y1-P2; also recorded: P2-S3; also recorded: Y21-S22; also recorded: L24-R25; also recorded: L30-I31; also recorded: R35-Y36

Results, then the molecule that gave them:

IP1 accumulation assay (G-protein activation), EC50 [4]: 0.4 nM
IP1 accumulation assay (G-protein activation), EC50 [5]: 1.2 nM
calcium flux assay (receptor activation), EC50 [6]: 0.3 nM
calcium flux assay (receptor activation), EC50 [7]: 0.1 nM
Molecule: [F^7,P^34]‐pNPY (peptide)

cleaved bond [10]: R35-Y36, minor
Molecule: YPSK(COCH2-4-OHT)PDFPGEDAPAEDLK(Tam)RYYSALRHYINLITRPRY-NH2

IP1 accumulation assay (G-protein activation), EC50 [11]: 3.4 nM
calcium flux assay (receptor activation), EC50 [12]: 7.2 nM
Molecule: porcine neuropeptide Y (pNPY) (from UniProt P01304 10-45)

calcium flux assay (receptor activation), EC50 [6]: 0.6 nM
calcium flux assay (receptor activation), EC50 [7]: 0.1 nM
Molecule: 4‐OHT conjugate 1 of [F^7,P^34]‐pNPY (w/o linker) (peptide)

IP1 accumulation assay (G-protein activation), EC50 [4]: 0.2 nM
calcium flux assay (receptor activation), EC50 [6]: 0.1 nM
arrestin-3 recruitment to the receptor (NanoBRET), EC50 (hY4R‐eYFP (human)): 3.9 nM
B1: human pancreatic polypeptide (hPP) (peptide)
peptide: APLEPVYPGDNATPEQMAQYAADLRRYINMLTRPRY
